Publication PMC7952577, “Overcoming the design, build, test bottleneck for synthesis of nonrepetitive protein-RNA cassettes”

Experiments:
Experiment in all cases: iSort-seq, translational repression in E. coli Top10, 37 C
Conditions in all cases: tags: C-GFP (kept); chain copies: 2
[1] = target: T1, Qbeta coat protein (strain MX1) (Qbeta virus (strain MX1), UniProt Q9T0R9)
T1 sequence: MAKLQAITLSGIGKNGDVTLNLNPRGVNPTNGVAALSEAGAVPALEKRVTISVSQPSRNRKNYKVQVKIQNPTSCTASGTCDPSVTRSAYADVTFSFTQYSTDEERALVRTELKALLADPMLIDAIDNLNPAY

PP7 coat protein dlFG = PP7 coat protein dlFG (Pseudomonas phage PP7 (Bacteriophage …, UniProt P03630, ins1-2LA;del68-75insSG))
[2] = target: MS2 coat protein V29I dlFG (Escherichia phage MS2 (Bacteriophage …, UniProt P03612, V30I;del68-81insG))

B1: qb_NOTpre_changeBulge_0004_d2 (ssRNA)
RNA: UUAAUUAAAGAGGAGAAAGGUACCCAUGGCAUGCAUGUCUAAGACAGCAUCUGUGAGCAAGGGCGAGGAGGAUAACAUGGCCAUCAUCAAGGAGUUCAUGCGCUUCAAGGUGCACAUGGAGGG
[1]
  binding signal: 9.05 Rscore (log-likelihood ratio)

B2: pp7_wt_5_d1 (ssRNA)
RNA: UUAAUUAAAGAGGAGAAAGGUACCCAUGCUAAGGAGUUUAUAUGGAAACCCUUAUGUGAGCAAGGGCGAGGAGGAUAACAUGGCCAUCAUCAAGGAGUUCAUGCGCUUCAAGGUGCACAUGGAGGG
PP7 coat protein dlFG
  binding signal: 6.62 Rscore (log-likelihood ratio)

B3: ms2_wt_1_d1 (ssRNA)
RNA: UUAAUUAAAGAGGAGAAAGGUACCCAUGCACAUGAGGAUUACCCAUGUUGUGAGCAAGGGCGAGGAGGAUAACAUGGCCAUCAUCAAGGAGUUCAUGCGCUUCAAGGUGCACAUGGAGGG
[2]
  binding signal: 21.6 Rscore (log-likelihood ratio)
